Source: the supplement of paper PMC10065799, “High-throughput profiling of sequence recognition by tyrosine kinases and SH2 domains using bacterial peptide display” (eLife, 2023)

Assays:
AncSZ = assay: phosphorylation enrichment, bacterial display (enrichment ratio); higher = better substrate or ligand; peptides without Tyr show the background
EPHB1 = EPHB1 (UniProt P54762); assay: as above
EPHB2 = EPHB2 (UniProt P29323); assay: as above
FGFR1 = FGFR1 (UniProt P11362); assay: as above
FGFR3 = FGFR3 (UniProt P22607); assay: as above
Fer (mouse) = assay: as above
Fes = Fes (UniProt P07332); assay: as above
Fyn = Fyn (UniProt P06241); assay: as above
Hck = Hck (UniProt P08631); assay: as above
Jak2 = Jak2 (UniProt O60674); assay: as above
MERTK = MERTK (UniProt Q12866); assay: as above
c-Abl (mouse) = assay: as above
c-Src = assay: as above
Grb2 SH2 = Grb2 SH2 (UniProt P62993); assay: SH2 binding enrichment of the phosphorylated peptide, bacterial display (enrichment ratio); higher = better substrate or ligand; peptides without Tyr show the background
SHP2-C SH2 = assay: as above
c-Src SH2 = assay: as above
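Throughout, for SH2 binding enrichment of the phosphorylated peptide, bacterial display: peptide library displayed on the E. coli surface as eCPX fusions, selected cells deep-sequenced, score is each peptide's frequency after selection divided by its frequency in the input.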
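Throughout, for phosphorylation enrichment, bacterial display: 11-residue human phosphosite peptides and single-mutation variants displayed on the E. coli surface, counted by deep sequencing, each peptide's frequency after selection divided by its frequency in the unselected input library; frequency after pTyr selection over input frequency; kinase dosed for 20-30% of maximal phosphorylation in three min.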

EPHB2, sequence (P29323 whole entry, looked up): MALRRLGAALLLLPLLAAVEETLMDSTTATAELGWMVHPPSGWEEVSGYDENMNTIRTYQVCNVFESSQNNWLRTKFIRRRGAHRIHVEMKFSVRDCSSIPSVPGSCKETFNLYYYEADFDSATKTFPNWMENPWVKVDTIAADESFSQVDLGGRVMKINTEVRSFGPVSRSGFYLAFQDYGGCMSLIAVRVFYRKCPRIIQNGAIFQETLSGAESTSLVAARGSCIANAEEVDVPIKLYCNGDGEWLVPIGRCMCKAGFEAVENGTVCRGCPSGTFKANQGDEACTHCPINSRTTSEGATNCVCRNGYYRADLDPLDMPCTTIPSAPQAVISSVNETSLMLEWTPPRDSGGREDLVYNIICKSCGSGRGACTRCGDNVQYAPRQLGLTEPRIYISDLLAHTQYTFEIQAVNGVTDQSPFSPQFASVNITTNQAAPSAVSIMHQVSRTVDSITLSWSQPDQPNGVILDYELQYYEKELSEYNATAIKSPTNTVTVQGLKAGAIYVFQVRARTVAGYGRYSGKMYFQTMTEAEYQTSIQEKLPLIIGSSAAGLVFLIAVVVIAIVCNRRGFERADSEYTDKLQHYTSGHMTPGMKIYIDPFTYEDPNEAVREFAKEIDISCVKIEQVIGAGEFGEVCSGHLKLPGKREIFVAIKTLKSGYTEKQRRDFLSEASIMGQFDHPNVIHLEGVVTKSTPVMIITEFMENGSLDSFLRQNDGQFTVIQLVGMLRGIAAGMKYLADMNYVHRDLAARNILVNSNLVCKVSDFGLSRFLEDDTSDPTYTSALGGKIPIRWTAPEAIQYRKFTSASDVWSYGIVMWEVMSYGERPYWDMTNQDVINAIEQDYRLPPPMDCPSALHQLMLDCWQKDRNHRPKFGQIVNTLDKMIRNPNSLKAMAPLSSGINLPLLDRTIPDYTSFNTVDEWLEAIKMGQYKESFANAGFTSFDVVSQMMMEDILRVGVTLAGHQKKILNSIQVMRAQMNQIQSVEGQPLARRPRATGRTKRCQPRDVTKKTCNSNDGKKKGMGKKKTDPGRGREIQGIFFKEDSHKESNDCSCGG
Fyn, sequence (P06241 whole entry, looked up): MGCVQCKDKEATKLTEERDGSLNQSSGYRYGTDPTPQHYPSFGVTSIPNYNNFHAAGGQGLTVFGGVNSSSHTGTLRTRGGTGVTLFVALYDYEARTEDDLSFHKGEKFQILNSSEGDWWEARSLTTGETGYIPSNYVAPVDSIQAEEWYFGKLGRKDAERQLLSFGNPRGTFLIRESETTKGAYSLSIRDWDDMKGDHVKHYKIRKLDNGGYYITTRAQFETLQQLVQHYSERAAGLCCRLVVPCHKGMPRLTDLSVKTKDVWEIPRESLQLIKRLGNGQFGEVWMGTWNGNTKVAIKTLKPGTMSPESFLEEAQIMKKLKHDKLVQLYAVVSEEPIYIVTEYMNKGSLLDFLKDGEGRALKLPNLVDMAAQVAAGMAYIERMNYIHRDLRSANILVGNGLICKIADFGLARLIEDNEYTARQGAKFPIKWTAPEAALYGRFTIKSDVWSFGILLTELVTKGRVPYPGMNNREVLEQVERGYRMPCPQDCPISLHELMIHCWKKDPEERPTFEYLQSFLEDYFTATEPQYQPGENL
EPHB1, sequence (P54762 whole entry, looked up): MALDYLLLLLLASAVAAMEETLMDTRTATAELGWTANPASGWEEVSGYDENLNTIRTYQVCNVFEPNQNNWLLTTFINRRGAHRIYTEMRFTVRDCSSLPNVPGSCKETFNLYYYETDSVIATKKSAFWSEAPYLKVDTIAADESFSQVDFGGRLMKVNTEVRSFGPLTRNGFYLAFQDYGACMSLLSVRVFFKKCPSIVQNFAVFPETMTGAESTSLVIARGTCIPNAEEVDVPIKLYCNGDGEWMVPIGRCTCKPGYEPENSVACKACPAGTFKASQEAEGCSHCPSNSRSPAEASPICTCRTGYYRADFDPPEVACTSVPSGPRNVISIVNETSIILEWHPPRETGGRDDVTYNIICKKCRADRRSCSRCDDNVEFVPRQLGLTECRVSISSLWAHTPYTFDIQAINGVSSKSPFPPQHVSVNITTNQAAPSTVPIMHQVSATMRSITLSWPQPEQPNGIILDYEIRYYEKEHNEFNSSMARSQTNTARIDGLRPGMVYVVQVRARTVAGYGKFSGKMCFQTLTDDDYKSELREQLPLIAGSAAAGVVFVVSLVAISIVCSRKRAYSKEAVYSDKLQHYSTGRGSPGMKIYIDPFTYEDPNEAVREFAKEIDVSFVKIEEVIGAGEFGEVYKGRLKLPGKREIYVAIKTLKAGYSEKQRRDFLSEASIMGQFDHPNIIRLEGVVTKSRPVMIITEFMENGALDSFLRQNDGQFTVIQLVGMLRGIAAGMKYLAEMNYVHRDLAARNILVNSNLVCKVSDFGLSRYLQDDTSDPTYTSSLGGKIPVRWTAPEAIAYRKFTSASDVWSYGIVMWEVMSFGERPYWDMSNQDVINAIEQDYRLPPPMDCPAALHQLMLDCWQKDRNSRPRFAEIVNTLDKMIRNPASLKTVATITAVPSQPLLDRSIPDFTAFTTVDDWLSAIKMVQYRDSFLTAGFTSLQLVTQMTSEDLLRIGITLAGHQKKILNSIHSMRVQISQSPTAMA
Jak2, sequence (O60674 whole entry, looked up): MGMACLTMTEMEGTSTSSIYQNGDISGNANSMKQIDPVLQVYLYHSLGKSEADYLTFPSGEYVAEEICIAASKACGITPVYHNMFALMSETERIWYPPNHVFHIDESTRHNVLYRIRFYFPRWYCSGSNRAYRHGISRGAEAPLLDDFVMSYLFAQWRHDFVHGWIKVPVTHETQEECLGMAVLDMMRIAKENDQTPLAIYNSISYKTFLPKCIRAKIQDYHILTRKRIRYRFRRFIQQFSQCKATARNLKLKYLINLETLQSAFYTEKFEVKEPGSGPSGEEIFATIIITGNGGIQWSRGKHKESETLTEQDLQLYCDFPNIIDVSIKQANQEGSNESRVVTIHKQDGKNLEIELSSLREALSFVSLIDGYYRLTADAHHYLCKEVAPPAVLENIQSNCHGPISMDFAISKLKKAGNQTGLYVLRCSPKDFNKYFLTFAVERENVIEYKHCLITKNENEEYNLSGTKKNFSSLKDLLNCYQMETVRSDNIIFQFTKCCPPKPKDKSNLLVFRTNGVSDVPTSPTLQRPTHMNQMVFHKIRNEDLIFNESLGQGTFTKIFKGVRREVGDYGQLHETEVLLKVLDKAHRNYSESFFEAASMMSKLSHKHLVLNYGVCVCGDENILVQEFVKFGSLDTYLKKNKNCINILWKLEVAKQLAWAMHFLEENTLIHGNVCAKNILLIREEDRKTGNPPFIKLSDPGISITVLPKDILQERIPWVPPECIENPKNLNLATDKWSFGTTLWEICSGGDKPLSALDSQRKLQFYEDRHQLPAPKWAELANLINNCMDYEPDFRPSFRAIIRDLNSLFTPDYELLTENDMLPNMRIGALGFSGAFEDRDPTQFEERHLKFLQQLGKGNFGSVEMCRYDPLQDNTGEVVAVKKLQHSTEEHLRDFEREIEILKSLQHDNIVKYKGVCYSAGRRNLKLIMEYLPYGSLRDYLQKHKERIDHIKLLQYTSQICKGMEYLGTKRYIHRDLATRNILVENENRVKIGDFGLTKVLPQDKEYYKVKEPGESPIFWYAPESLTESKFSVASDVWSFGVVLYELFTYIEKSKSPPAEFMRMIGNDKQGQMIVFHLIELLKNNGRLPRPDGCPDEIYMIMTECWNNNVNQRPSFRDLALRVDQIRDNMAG
Hck, sequence (P08631 whole entry, looked up): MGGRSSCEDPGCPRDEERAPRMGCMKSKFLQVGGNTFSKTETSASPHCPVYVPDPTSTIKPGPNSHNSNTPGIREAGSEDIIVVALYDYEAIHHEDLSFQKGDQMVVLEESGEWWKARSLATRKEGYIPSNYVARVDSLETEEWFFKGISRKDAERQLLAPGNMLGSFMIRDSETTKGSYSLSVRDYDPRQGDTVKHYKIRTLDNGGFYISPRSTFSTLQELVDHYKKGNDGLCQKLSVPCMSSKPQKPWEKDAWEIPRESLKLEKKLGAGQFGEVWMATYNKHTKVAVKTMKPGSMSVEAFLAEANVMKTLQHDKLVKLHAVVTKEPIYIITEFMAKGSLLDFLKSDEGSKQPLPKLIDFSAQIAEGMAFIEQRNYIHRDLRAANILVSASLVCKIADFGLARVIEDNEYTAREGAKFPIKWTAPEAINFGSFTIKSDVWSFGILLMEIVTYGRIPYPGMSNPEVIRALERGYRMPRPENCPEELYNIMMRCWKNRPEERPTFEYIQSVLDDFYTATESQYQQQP
FGFR3, sequence (P22607 whole entry, looked up): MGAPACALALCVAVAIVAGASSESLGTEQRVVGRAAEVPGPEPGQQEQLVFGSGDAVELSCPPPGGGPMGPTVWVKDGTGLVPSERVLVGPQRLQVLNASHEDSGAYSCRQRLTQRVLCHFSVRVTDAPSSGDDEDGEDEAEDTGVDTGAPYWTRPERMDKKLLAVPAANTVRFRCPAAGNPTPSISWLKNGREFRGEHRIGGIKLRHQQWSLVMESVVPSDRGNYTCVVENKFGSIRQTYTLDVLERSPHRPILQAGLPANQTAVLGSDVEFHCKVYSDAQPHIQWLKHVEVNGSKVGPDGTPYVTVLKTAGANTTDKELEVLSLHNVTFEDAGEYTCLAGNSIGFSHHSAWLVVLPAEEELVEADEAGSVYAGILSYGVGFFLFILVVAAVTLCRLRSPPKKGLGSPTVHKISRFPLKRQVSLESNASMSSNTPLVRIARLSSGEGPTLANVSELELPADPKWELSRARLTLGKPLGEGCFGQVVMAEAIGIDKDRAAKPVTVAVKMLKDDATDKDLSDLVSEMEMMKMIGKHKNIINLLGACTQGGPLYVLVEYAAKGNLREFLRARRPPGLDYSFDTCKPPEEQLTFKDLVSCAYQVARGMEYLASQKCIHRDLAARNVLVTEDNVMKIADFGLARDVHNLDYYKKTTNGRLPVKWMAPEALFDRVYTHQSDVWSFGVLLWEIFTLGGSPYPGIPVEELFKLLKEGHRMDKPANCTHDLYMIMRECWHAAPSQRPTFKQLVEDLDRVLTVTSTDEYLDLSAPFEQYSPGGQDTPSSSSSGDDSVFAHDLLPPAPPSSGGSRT

Row | Sequence | phosphorylation enrichment (AncSZ) | phosphorylation enrichment (EPHB1) | phosphorylation enrichment (EPHB2) | phosphorylation enrichment (FGFR1) | phosphorylation enrichment (FGFR3) | phosphorylation enrichment (Fer (mouse)) | phosphorylation enrichment (Fes) | phosphorylation enrichment (Fyn) | phosphorylation enrichment (Hck) | phosphorylation enrichment (Jak2) | phosphorylation enrichment (MERTK) | phosphorylation enrichment (c-Abl (mouse)) | phosphorylation enrichment (c-Src) | SH2 binding enrichment (Grb2 SH2) | SH2 binding enrichment (SHP2-C SH2) | SH2 binding enrichment (c-Src SH2)
1 | WQQQSYLDSGS [CTNNB1_Y30_I35S] | 0.781 | 0.436 | 0.528 | 0.561 | 0.536 | 0.675 | 0.741 | 0.423 | 0.45 | 0.581 | 0.397 | 0.56 | 0.363 | 0.733 | 0.582 | 0.481
2 | WRPFGYPRCRR [BCS1L_Y181_R184C] | 0.599 | 0.444 | 0.478 | 0.505 | 0.459 | 0.447 | 0.509 | 0.498 | 0.454 | 0.485 | 0.505 | 0.403 | 0.528 | 0.714 | 0.39 | 0.459
3 | WRVIGYHVVVW [ATP13A2_Y50] | 1.21 | 0.695 | 0.692 | 0.551 | 0.828 | 0.587 | 1.25 | 0.444 | 0.568 | 1.19 | 0.417 | 0.903 | 0.501 | 1.08 | 0.915 | 0.727
4 | WVFNHYRWFIW [BRCA2_Y2624_I2627F_YF] | 1.13 | 0.654 | 0.636 | 0.49 | 0.813 | 0.575 | 1.32 | 0.462 | 0.482 | 1.25 | 0.463 | 0.898 | 0.409 | 0.941 | 0.693 | 0.587
5 | YAANYYKLLGN [ROR2_Y646_D644N] | 0.566 | 0.566 | 0.546 | 1.76 | 1.35 | 0.506 | 0.609 | 0.46 | 0.406 | 0.917 | 0.832 | 0.579 | 0.462 | 0.872 | 0.685 | 0.501
6 | YADPYYDYEIE [ZC3H18_Y372] | 1.95 | 2.05 | 1.94 | 9.62 | 7.39 | 1.58 | 1.31 | 2.52 | 1.06 | 1.24 | 2.18 | 0.853 | 3.01 | 0.787 | 0.545 | 2.04
7 | YDGKDYIALKE [HLA-A_Y147_N151K] | 1.12 | 0.669 | 0.648 | 0.702 | 0.739 | 0.49 | 0.913 | 0.493 | 0.49 | 1.03 | 0.439 | 0.72 | 0.377 | 0.891 | 0.648 | 0.495
8 | YDKEYYSVHNK [MET_Y1235] | 1.36 | 0.542 | 0.428 | 4.29 | 2.95 | 0.425 | 0.754 | 0.455 | 0.922 | 1.01 | 0.441 | 0.684 | 0.881 | 0.759 | 0.399 | 0.478
9 | YEREQYADRTR [RBM4_Y355_A359T] | 0.897 | 0.343 | 0.419 | 0.566 | 0.472 | 0.494 | 0.706 | 0.439 | 0.469 | 0.603 | 0.448 | 0.55 | 0.443 | 0.878 | 0.717 | 0.61
10 | YETVKYINNER [ABCB7_Y345_F346I] | 0.858 | 0.73 | 0.623 | 1.22 | 0.832 | 10.5 | 0.943 | 1.22 | 1.96 | 0.803 | 0.903 | 0.619 | 1.1 | 1.48 | 1.24 | 11.8
11 | YGCGMYSHLQG [LGR4_Y848_D844G] | 1.2 | 1.06 | 1.07 | 1.06 | 0.998 | 1.24 | 1.07 | 1.51 | 4.44 | 0.723 | 5.25 | 1.49 | 2.87 | 0.854 | 0.991 | 1.96
12 | YGSSSSGGAGG [RPA2_Y14_Y14S] | 0.604 | 0.304 | 0.461 | 0.403 | 0.347 | 0.437 | 0.535 | 0.389 | 0.359 | 0.392 | 0.355 | 0.317 | 0.337 | 0.711 | 0.612 | 0.395
13 | YKGKKYKPLDL [RPL35_Y78] | 0.462 | 0.283 | 0.391 | 0.405 | 0.45 | 0.537 | 0.541 | 0.511 | 0.404 | 0.51 | 0.581 | 0.508 | 0.541 | 0.821 | 0.955 | 0.429
14 | YLRTGYSIPYG [TGM1_Y370_V372I] | 0.777 | 0.451 | 0.461 | 0.554 | 0.574 | 0.384 | 0.677 | 0.375 | 0.39 | 0.804 | 1.21 | 0.702 | 0.457 | 1.01 | 2.11 | 9.77
15 | YNDSTYNQQLI [ZPLD1_Y198] | 0.801 | 0.521 | 0.465 | 0.495 | 0.471 | 0.491 | 0.738 | 0.479 | 0.506 | 0.612 | 0.435 | 0.533 | 0.51 | 0.784 | 0.371 | 0.568
16 | YPKARYRWLVL [APTX_Y214_H215R] | 0.786 | 0.434 | 0.553 | 0.611 | 0.492 | 0.456 | 0.787 | 0.464 | 0.422 | 0.6 | 0.478 | 0.499 | 0.399 | 1.08 | 1.02 | 0.933
17 | YRDALYKSMVD [PHEX_Y250_F252S] | 0.757 | 0.564 | 0.805 | 0.458 | 0.608 | 0.421 | 0.856 | 0.495 | 0.525 | 0.717 | 0.4 | 0.592 | 0.449 | 0.804 | 0.666 | 0.457
18 | YRIGPYQPNVP [MATR3_Y784] | 0.685 | 0.565 | 0.504 | 0.769 | 0.712 | 0.5 | 0.736 | 0.505 | 0.486 | 0.44 | 0.358 | 0.501 | 0.402 | 0.765 | 0.883 | 0.77
19 | YRKNIYNVKST [SYNE2_Y575] | 0.488 | 0.337 | 0.423 | 0.384 | 0.48 | 0.425 | 0.47 | 0.458 | 0.324 | 0.37 | 0.354 | 0.405 | 0.474 | 0.753 | 0.581 | 0.422
20 | YRQNVYIPGSN [PCDHGA1_Y895] | 0.564 | 0.421 | 0.429 | 0.427 | 0.519 | 0.405 | 0.626 | 0.435 | 0.435 | 0.576 | 0.424 | 0.531 | 0.454 | 0.829 | 0.661 | 0.43
21 | YSMGCYEISLG [HMGCL_Y198] | 2.12 | 1.56 | 1.18 | 0.69 | 0.817 | 2.77 | 1.47 | 2.15 | 1.22 | 1.38 | 2.66 | 1.08 | 2.35 | 0.551 | 0.658 | 0.582
22 | YSNVLYRPRGA [TMIGD2_Y197] | 0.923 | 1.34 | 0.6 | 0.784 | 0.614 | 4.97 | 0.753 | 0.615 | 0.651 | 0.596 | 2.23 | 0.692 | 0.558 | 0.907 | 0.683 | 1.05
23 | YSNVLYRPRGP [TMIGD2_Y197_A202P] | 0.796 | 0.492 | 0.576 | 0.685 | 0.525 | 1.83 | 0.656 | 0.501 | 0.69 | 0.501 | 0.856 | 0.461 | 0.421 | 0.717 | 4.56 | 0.682
24 | YTFTSYYMHWV [IGHV1-46_Y51] | 1.64 | 1.84 | 1.27 | 3.64 | 2.89 | 1.78 | 1.71 | 0.771 | 1.3 | 3.85 | 4.16 | 1.06 | 0.952 | 0.978 | 1.1 | 0.613
25 | YTGSTYRVGDT [FN1_Y106_N104S] | 0.72 | 0.422 | 0.453 | 0.726 | 0.58 | 0.405 | 0.748 | 0.464 | 0.529 | 0.715 | 0.355 | 0.595 | 0.48 | 0.836 | 0.902 | 0.538
26 | YVPSNYVAEDR [FRK_Y104_I100V] | 0.886 | 0.53 | 0.424 | 0.441 | 0.632 | 0.497 | 0.754 | 0.411 | 0.382 | 0.655 | 0.414 | 0.584 | 0.392 | 0.735 | 0.738 | 0.608
27 | YYHCTYKKRMI [CLEC12A_Y242] | 1.37 | 0.525 | 0.601 | 4.79 | 3.12 | 0.558 | 1.21 | 0.59 | 0.78 | 1.29 | 1.48 | 0.994 | 0.599 | 1.25 | 0.966 | 1.11
